In assay [1] the target is human CEACAM5 (carcinoembryonic antigen, CEA) on cells (human) (UniProt P06731). The experiment in a line: flow cytometry, MKN45 cells. Also noted: unit not given beside the values.
In assay [2] the target is cynomolgus monkey CEACAM5 on CHO-k1-cynoCEACAM5 clone 8 cells (cynomolgus monkey). Put plainly: cell-based or functional assay. Also noted: AUC of activation curve, Jurkat-hu4-1BB-NFκB-luc2, no CEA+ cells / AUC of activation curve, Jurkat-hu4-1BB-NFκB-luc2 with CHO-k1-cyno CEACAM5 clone 8: unit not given beside the values.
The target in assay [3] is human 4-1BB on Jurkat-hu4-1BB-NFκB-luc2 reporter cells (human) (UniProt Q07011). Put plainly: cell-based or functional assay. More on the design: AUC of activation curve, Jurkat-hu4-1BB-NFκB-luc2, no CEA+ cells / AUC of activation curve, Jurkat-hu4-1BB-NFκB-luc2 with CHO-k1-cyno CEACAM5 clone 8: unit not given beside the values.
Chain of human 4-1BB on Jurkat-hu4-1BB-NFκB-luc2 reporter cells (human) (Q07011 24-255 limits assumed): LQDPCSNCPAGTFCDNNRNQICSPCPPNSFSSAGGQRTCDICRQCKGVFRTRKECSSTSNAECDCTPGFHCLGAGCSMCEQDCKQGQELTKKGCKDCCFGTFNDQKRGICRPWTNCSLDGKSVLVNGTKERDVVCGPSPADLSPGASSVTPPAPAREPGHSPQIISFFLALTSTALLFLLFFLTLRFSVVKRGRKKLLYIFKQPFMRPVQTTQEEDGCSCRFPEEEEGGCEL
The target of assay [4] is human CEACAM5 (carcinoembryonic antigen, CEA) on cells (human) (UniProt P06731). Put plainly: cell-based or functional assay. More on the design: AUC of activation curve, Jurkat-hu4-1BB-NFκB-luc2, no CEA+ cells / AUC of activation curve, Jurkat-hu4-1BB-NFκB-luc2 with CHO-k1-cyno CEACAM5 clone 8: unit not given beside the values.
For assay [5] the target is unchanged. The experiment in a line: cell-based or functional assay.
Assay [6] shares this target. Put plainly: flow cytometry, CHO-k1-huCEACAM5 clone 12. More on the design: unit not given beside the values. In general terms: A flow cytometer gives signals particle by particle.
For assay [7] the target is unchanged. The experiment in a line: flow cytometry, CHO-k1-huCEACAM5 clone 13. More on the design: unit not given beside the values.
Assay [8] has the same target. The experiment in a line: flow cytometry, CHO-k1-huCEACAM5 clone 11. Also noted: unit not given beside the values.
The target in assay [9] is cynomolgus monkey CEACAM5 on CHO-k1-cynoCEACAM5 clone 8 cells (cynomolgus monkey). The experiment in a line: flow cytometry, CHO-k1-cynoCEACAM5 clone 8. Also noted: unit not given beside the values.
Assay [10] has the same target. Put plainly: flow cytometry, CHO-k1-cynoCEACAM5 clone 8. Also noted: unit not given beside the values. The source holds these as a separate data set.
For assay [11], the target named is human CEACAM5 (carcinoembryonic antigen, CEA) on cells (human) (UniProt P06731). Put plainly: flow cytometry, CHO-k1-huCEACAM5 clone 11. More on the design: unit not given beside the values. This is another data set of the same source.
The target is the same in assay [12]. Put plainly: flow cytometry, CHO-k1-huCEACAM5 clone 17. Also noted: unit not given beside the values.
The target is the same in assay [13]. The experiment in a line: flow cytometry, CHO-k1-huCEACAM5 clone 12. More on the design: unit not given beside the values. The source holds these as a separate data set.

Read-outs that look alike come from different tables or passages of the source.

Chain of human CEACAM5 (carcinoembryonic antigen, CEA) on cells (human) (P06731 35-685 E398K limits assumed): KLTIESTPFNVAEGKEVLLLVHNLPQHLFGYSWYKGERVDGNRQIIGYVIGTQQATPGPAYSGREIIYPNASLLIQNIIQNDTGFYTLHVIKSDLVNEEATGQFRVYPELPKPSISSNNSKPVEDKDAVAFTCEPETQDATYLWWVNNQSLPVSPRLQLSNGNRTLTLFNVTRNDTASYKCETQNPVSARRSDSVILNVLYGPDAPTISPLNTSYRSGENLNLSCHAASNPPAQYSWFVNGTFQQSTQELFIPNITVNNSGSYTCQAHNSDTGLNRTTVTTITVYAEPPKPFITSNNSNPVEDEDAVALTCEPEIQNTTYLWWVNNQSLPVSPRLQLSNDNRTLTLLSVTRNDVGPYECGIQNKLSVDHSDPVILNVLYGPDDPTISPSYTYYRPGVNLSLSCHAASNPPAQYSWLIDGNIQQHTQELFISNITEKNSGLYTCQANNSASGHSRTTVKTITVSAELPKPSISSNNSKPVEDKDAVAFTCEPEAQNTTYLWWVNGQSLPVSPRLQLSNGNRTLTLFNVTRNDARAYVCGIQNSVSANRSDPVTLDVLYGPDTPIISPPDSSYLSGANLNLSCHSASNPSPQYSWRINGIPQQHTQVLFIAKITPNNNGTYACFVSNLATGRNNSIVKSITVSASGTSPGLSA

Consider “P1AD5108-002 DP47 huIgG1 PG LALA (Isotype control) (antibody)”, for which the AUC in [1] amounted to 420.
Substance “CEA(sm9b)-4-1BBL single chain (Fc fusion)” returned an AUC of activation curve, Jurkat-hu4-1BB-NFκB-luc2 with CHO-k1-cyno CEACAM5 clone 8 in [2] of 2820. The substance also had an AUC of activation curve, Jurkat-hu4-1BB-NFκB-luc2, no CEA+ cells in [3] of 1980. In assay [4], the AUC of activation curve, Jurkat-hu4-1BB-NFκB-luc2 with CHO-k1-human CEACAM5 clone 11 came to 150000 and the AUC of activation curve, Jurkat-hu4-1BB-NFκB-luc2 with CHO-k1-human CEACAM5 clone 12 worked out at 146000. In assay [5], the EC50, NFκB-luciferase in Jurkat-hu4-1BB-NFκB-luc2 with CHO-k1-human CEACAM5 clone 11 was found to be 0.09 nM and the EC50, NFκB-luciferase in Jurkat-hu4-1BB-NFκB-luc2 with CHO-k1-human CEACAM5 clone 12 was 0.07 nM.
DP47-4-1BBL (Fc fusion): the AUC is 140 in assay [6]; 752 in [7]; 148 in assay [8]; 11 in [9]; 520 in assay [10]; 1300 in [11]. The AUC in assay [12] was 430; in assay [13], 700. In assay [2], this substance returned an AUC of activation curve, Jurkat-hu4-1BB-NFκB-luc2 with CHO-k1-cyno CEACAM5 clone 8 of 4710. For the same substance, the AUC of activation curve, Jurkat-hu4-1BB-NFκB-luc2, no CEA+ cells in assay [3] was 2930. Further, the AUC of activation curve, Jurkat-hu4-1BB-NFκB-luc2 with CHO-k1-human CEACAM5 clone 11 in [4] came out at 8640. Further, in assay [4], the AUC of activation curve, Jurkat-hu4-1BB-NFκB-luc2 with CHO-k1-human CEACAM5 clone 12 was determined as 6640.
As to CEA(sm9b)-4-1BBL (Fc fusion), the AUC of activation curve, Jurkat-hu4-1BB-NFκB-luc2 with CHO-k1-cyno CEACAM5 clone 8 in assay [2] is 3970. The same substance had an AUC of activation curve, Jurkat-hu4-1BB-NFκB-luc2, no CEA+ cells in assay [3] of 2810. In assay [4], this substance gave an AUC of activation curve, Jurkat-hu4-1BB-NFκB-luc2 with CHO-k1-human CEACAM5 clone 11 of 162000 and an AUC of activation curve, Jurkat-hu4-1BB-NFκB-luc2 with CHO-k1-human CEACAM5 clone 12 of 164000. In assay [5], this substance displayed an EC50, NFκB-luciferase in Jurkat-hu4-1BB-NFκB-luc2 with CHO-k1-human CEACAM5 clone 11 of 0.05 nM and an EC50, NFκB-luciferase in Jurkat-hu4-1BB-NFκB-luc2 with CHO-k1-human CEACAM5 clone 12 of 0.03 nM.
CEA (MEDI-565)-4-1BBL (Fc fusion): the AUC of activation curve, Jurkat-hu4-1BB-NFκB-luc2, no CEA+ cells in assay [3] came to 2270.

Values taken from patent US20220267464A1.
